21 molecules from US20120021993A1 (AJOU UNIVERSITY INDUSTRY ACADEMIC COOPERATION FOUNDATION, published 2012) can be followed below.

Substitutions are numbered along the chain they refer to.

For experiment [1], the target named is T1, human-derived cell death receptor 4, extracellular domain (amino acid residues 1-216), 6xHis tag (human, UniProt O00220 24-239).
T1 construct: extracellular domain; Expressed in E. coli; biotinylated for sorting and flow cytometry; residues 1-216; also called DR4; TRAIL-receptor 1
Kind of experiment: yeast display, flow cytometry MFI [panel KD506].

For experiment [2], the target named is T2, DcR1 (UniProt O14798 26-221, limits assumed).
T2 sequence (looked up): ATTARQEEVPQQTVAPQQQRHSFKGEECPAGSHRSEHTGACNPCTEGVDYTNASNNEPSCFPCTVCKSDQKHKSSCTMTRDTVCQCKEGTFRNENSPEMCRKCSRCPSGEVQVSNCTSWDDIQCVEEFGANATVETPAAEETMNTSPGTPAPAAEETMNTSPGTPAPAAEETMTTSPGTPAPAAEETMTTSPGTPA
Kind of experiment: yeast display, flow cytometry MFI [panel KD506].

The target in experiment [3] is T3, DcR2 (UniProt Q9UBN6 56-211, limits assumed).
T3 sequence (looked up): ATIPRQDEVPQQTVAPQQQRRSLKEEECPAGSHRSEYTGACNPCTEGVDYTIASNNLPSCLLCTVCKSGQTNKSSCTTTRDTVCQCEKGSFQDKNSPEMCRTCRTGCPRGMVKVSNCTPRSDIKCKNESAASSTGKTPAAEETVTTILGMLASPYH
Kind of experiment: yeast display, flow cytometry MFI [panel KD506].

The target of experiment [4] is T4, human-derived cell death receptor 5, extracellular domain (amino acid residues 1-130), 6xHis tag (human, UniProt O14763 56-210).
T4 construct: extracellular domain; Expressed in E. coli; biotinylated for sorting and flow cytometry; also called DR5; TRAIL-receptor 2
Kind of experiment: ELISA, coated target, A405. As to the method:
(§1) In order to measure the affinity and cross reactivity of the anti-DR4, -DR5 and -TNFα protein scaffold variants based on the Kringle domain structure to the target molecules, an enzyme-linked immunosorbent assay (ELISA) was performed. The target molecules DR4, DR5, TNFα and DcR1, DcR2 were attached to a 96 well EIA/RIA plate (COSTARCorning In., USA) by its reaction at 37° C. for 1 hour, and washed three times with 0.1% PBST (0.1% Tween20, pH 7.4, 137 mM NaCl, 10 mM Phosphate, 2.7 mM KCl, SIGMA-ALDRICH Co., USA) for 10 minutes. The target molecules were attached for 1 hour to a 96 well EIA/RIA plate in 1% PBSB (1% BSA, pH 7.4, 137 mM NaCl, 10 mM Phosphate, 2.7 mM KCl, SIGMA-ALDRICH Co., USA), and then washed three times with 0.1% PBST (0.1% Tween 20, pH 7.4, 137 mM NaCl, 10 mM Phosphate, 2.7 mM KCl, SIGMA-ALDRICH Co., USA) for 10 minutes. Then, the anti-DR4, -DR5 and -TNFα Kringle domain variants were bound, and washed three times with 0.1% PBST for 10 minutes. The anti-DR4, -DR5 and -TNFα Kringle domain variants were primarily bound to mouse-derived anti-c-myc 9e10 mAb (Ig Therapy, Korea), and secondarily bound to alkaline phosphatase (AP)-conjugated anti-mouse mAb (Sigma). Each of the Kringle domain variants was reacted with […] (pNPP, Sigma-aldrich Co., USA) and quantified at an absorbance of 405 nm.

Experiment [5] has as its target T1, human-derived cell death receptor 4, …. Kind of experiment: ELISA, coated target, single binder concentration not given, A405. As to the method:
as §1

In experiment [6] the target is T2, DcR1. The experiment is described as above. Here is the method:
as §1

The target of experiment [7] is T3, DcR2. Described as above. As to the method:
as §1

The target of experiment [8] is T1, human-derived cell death receptor 4, …. Kind of experiment: ELISA, coated target, A405. Here is the method: as §1
Experiment [9] concerns the target T2, DcR1. Kind of experiment: yeast display, flow cytometry MFI [panel KD415].
The target of experiment [10] is T3, DcR2. Kind of experiment: yeast display, flow cytometry MFI [panel KD415].

T4 sequence (O14763 other isoform, or with tags, fused parts or gaps limits assumed, form in doubt): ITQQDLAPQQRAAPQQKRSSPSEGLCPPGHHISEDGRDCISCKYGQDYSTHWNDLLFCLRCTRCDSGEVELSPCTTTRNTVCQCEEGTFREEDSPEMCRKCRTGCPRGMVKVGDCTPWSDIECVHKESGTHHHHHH
T1 sequence (O00220 other isoform, or with tags, fused parts or gaps): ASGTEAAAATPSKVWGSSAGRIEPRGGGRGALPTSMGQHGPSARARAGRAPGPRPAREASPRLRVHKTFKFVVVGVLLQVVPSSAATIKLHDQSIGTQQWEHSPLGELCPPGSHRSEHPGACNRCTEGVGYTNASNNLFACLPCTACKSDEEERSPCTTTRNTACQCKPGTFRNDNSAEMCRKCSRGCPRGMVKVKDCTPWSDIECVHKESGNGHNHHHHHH

B1: KD506L567 (designed binder)
chain: CMHCSGENYDGKISKTMSGLECQAWDSQSPHAHGYIPSKFPNKNLKKNYCRNPDYETGPWCFTNRYRNKNELCHEPRC
On to B1, for which the binding result in experiment [1], in experiment [2] and in experiment [3] was “no binding” in each case.

B2: L56 (KD506) (designed binder)
chain: B1 chain with H74D, E75I
notes: also called KD506L56
With B2, the binding result in experiment [1], in experiment [2] and in [3] was “no binding” in each case.

B3: L5 (KD506) (designed binder)
chain: B1 chain with N64T, R65D, Y66P, R67N, N68K, K69R, N70W, H74D, E75I
notes: also called KD506L5
In the case of B3, the binding result in experiment [1], in [2] and in experiment [3] was “no binding” each time.

B4: KD502 (designed binder)
chain: CAEDKGARYDGYQYRTHKGIKCQPWYQHEPHYHGHKDKIRHKNRNKKNYCRNPDAGDRPWCFTHRDKYEHELCNRPRC
On to B4, for which the “EC50 (read off the curve)” value in experiment [4] was roughly 2 µM. The binding result in experiment [5], in [6] and in experiment [7] was “no binding” in each case.

B5: KD459 (designed binder)
chain: CSRYRGHKYDGYKHRTYKGYQCQSWTKDKPHHHGIRHRNKIRDRFGKNYCRNPDTQNQPWCFTYGDEYRYELCNKPRC
In the case of B5, the concentration giving a half-maximal response (EC50 (read off the curve)) in experiment [8] is roughly 2 µM.

B6: KD437 (designed binder)
chain: CAKSRGYKYDGNRYKTNKGDKCQAWTKTKPHDHGHRHGHGDRFRNRKNYCRNPDHESKPWCFTYRDRYRHELCNRPRC
As to B6, the binding result in experiment [5] is reported as “binds”; in [6], “no binding”; in experiment [7], “no binding”.

B7: KD409 (designed binder)
chain: CAKDKGDKYDGHKHKTNRGDKCQTWAKNRPHFHGHRFEVGHEHKIRKNYCRNPDDQDKPWCFTHGYRNQDELCDGPRC
In the case of B7, the results for the binding result in [5], in experiment [6] and in experiment [7] were “binds”, “no binding” and “no binding”, respectively.

B8: KD509 (designed binder)
single chain: CAQSKGYRYDGDKDKTNKGHKCQDWAQNKPHVHGHRHEDRHQVKSRKNYCRNPDARARPWCFTNQVRYRNELCYKPRC
Regarding B8, the binding result in [7] is given as “no binding”.

B9: KD404 (designed binder)
chain: CSRDKGYRYDGDGNKTLKGHKCQHWTKSKPHDHGYRHKLGNEDKFKKNYCRNPDTRAGPWCFTDQYRDRDELCYQPRC
notes: Soluble monomer from Pichia pastoris; also called anti-DR4 Kringle domain variant KD404; not shown: C-terminal myc tag-6xHis tag of pPICZaA
As for B9, in [8], the “EC50 (read off the curve)” value was roughly 0.6 µM. Also, the binding result in [7] is listed as “no binding”.

B10: L1234 (KD506) (designed binder)
chain: CPEDRGHEYDGDGDKTNRGHGCQYWDQNKPHHHGHRDKDKFKHRIKKNYCRNPDRELRPWCFTTDPNKRWELCDIPRC
notes: also called KD506L1234
As to B10, the binding result in experiment [1], in experiment [2] and in [3] was “no binding” in each case.

B11: KD505 (designed binder)
chain: CPEDQGDEYDGHEHKTHRGNRCQSWYRPKPHNHGHRIKDRYKYKVKKNYCRNPDTQARPWCFTNRHRDEHELCDQPRC
notes: also called KDS05
With B11, the binding result in experiment [5], in experiment [6] and in experiment [7] was “no binding” throughout.

B12: KD408 (designed binder)
chain: CDRHKGPKYDGFRDRTHKGHKCQYWDKPRPHHHGHKHGDEFRNRLGKNYCRNPDSQAEPWCFTHKDKYKYELCYQPRC
For B12, the binding result in experiment [8] is on record as “binds”; in [6], “no binding”; in experiment [7], “no binding”.

B13: KD542 (designed binder)
chain: CNRAGGHKYDGDRYRTHRGDGCQNWAKTKPHHHGIGHRDKIRDKYRKNYCRNPDAKNGPWCFTNRNGDKNELCIQPRC
notes: Soluble monomer from Pichia pastoris; not shown: C-terminal myc tag-6xHis tag of pPICZaA
For B13, in [4], the “EC50 (read off the curve)” value is roughly 5 µM. The binding result in [5] is given as “binds”.

B14: L1234 (KD415) (designed binder)
chain: CTRSKGDEYDGHKHKTNRGLRCQHWPGTKPHFHGDKIKDRHGFRLKKNYCRNPDRELRPWCFTTDPNKRWELCDIPRC
notes: also called KD415L1234
Consider B14, for which the binding result in experiment [9] and in experiment [10] was “no binding” throughout.

B15: KD456 (designed binder)
chain: CDKNRGNGYDGNEIQTDGGVQCQHWTKTKPHHHGLKLQHEHRVKHEKNYCRNPDARTQPWCFTDKHQHKDELCIEPRC
With B15, the “EC50 (read off the curve)” value in experiment [8] was roughly 2 µM. In addition, the binding result in [6] and in [7] was “no binding” throughout.

B16: KD421 (designed binder)
chain: CAGAEGNEYDGDKYKTHKGYRCQRWDKSRPHNHGNKDRHQHENKVGKNYCRNPDNEAEPWCFTDQHKHGNELCDRPRC
Regarding B16, the binding result is reported as “binds” in experiment [5], “no binding” in [6] and “no binding” in experiment [7].

B17: KD537 (designed binder)
chain: CTRTKGAKYDGYKHRTHEGNKCQSWNKARPHLHGDRLGNKYEHKARKNYCRNPDNRAEPWCFTDKNQNQHELCYGPRC
Take B17: the binding result in experiment [5], in experiment [6] and in experiment [7] was “no binding” each time.

B18: KDT08 (designed binder)
chain: CPKSGGNGYDGYKHGTNEGLQCQNWDRAKPHDHGIEVQNEYGDRHEKNNCRNPDDKTRPWCFTHKDRYRNELCYQPRC
notes: Soluble monomer from Pichia pastoris; also called KRT08; not shown: C-terminal myc tag-6xHis tag of pPICZaA
Take B18: the binding result in experiment [5] was “no binding”.

B19: KD445 (designed binder)
chain: CHETKGHKYDGHRLRTNKGDRCQPWTKDKPHHHGFRDQYQVRYKLKKNYCRNPDDQNKPWCFTDGNQHEHELCNGPRC
With B19, the binding result was “binds” in [5], “no binding” in [6] and “no binding” in experiment [7].

B20: KD555 (designed binder)
chain: CDGAQGNGYDGNKHKTHRGNKCQAWPKHGPHYHGNGDQDGHRNKHKKNYCRNPDTRSRPWCFTDQNGHKDELCHGPRC
notes: also called KDS55
With B20, the binding result in [5], in experiment [6] and in experiment [7] was “no binding” in each case.

B21: KD503 (designed binder)
chain: CTQTKGHRYDGYKYETNWGHQCQAWTKHKPHLHGNGHRNRHKVGHEKNYCRNPDHRDGPWCFTNQYENENELCHQPRC
B21: the half-maximal effective concentration (EC50 (read off the curve)) in experiment [4] is roughly 0.4 µM. The binding result in experiment [5], in experiment [6] and in experiment [7] was “no binding” each time.
